Assay results published in the nanobody polyreactivity screen of Harvey et al. (2022).

Experiment: yeast display, Sf9 membrane polyspecificity reagent, FACS + sequencing; frameworks hold sequencing errors
In short: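 Galactose induction of a Saccharomyces cerevisiae BJ5465 synthetic nanobody display library ran 36–48 hours. The cells were then stained for 1 hour at 4 °C with 10% biotinylated, detergent-solubilized Sf9 membrane reagent, pulled down on streptavidin microbeads and FACS-sorted into low and high (top ~1%) gates on expression and reagent-binding fluorescence. Labels for polyreactivity follow the gate of origin.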

| Sequence | polyreactivity (PSR sort gate) |
| --- | --- |
| QVQLVESGGGLVQAGGSLRLSCAASGLTFANYAMGWYRQAPGKERELVAAISTWSGGSTYYADSVKGRFTISRDHAKNTVYLQMNSLKPEDTAVYYCNTDRYWGKGDYWGQGTQVTVSS | high polyreactivity |
| QVQLVESGGGLVQAGGSLRLRCAASGNTFRVYPMGWYRQAPGKESELVAAITWSGSRTYYADSVKGRFTISRDNAKNTVYFQINSLKPEDTAVYYCAARFVRAAYNYWGLGTQVTVSS | high polyreactivity |
| QVQLVESGGGLVHAGGSLRLSCAASGSTFARYAMGWYRPAPGKERELVAVIRSGGSTNYADSVKGRFTISRDNAKNTVYLQMNSLKPEDTAGAADQWTIHRWATYGYWGQGTQVTVSS | low polyreactivity |
| QVQLVESGGGLVQAGGSLRLSCAAYGRTFGRYAMGCYRPAPGKERELVAAITVGGGSKYYADSVKGRFTISRDNAKNTVYLQMNSLKPEDTAVYYCNALHTYTYRYDYYYWGQGTQVTVSS | high polyreactivity |
| QIQLVESVGGLVQAGGSLRLSCDASGSTLKYTAMGWYRQAPRKESELVAAISTSGGNTYYADSVKGPFTISRDNAKNTVYLQMNSLKPEDTAVYYCAKVLGYYYYDYDSWGQGTQVTVSS | low polyreactivity |
| QVQLVESGGGLVQAGGSLRLSCAASGFTFHKYAMGWYRQAPGKERELVAAITSSGGSTYYADSVKGRFTISRDNAKNTVYLQMNSLKPEDTAVYYCNARGGGRKSYDYWGQGTQVTVSS | high polyreactivity |
| QVQLVESGGGLVQAGGSLRLSCAASGFTFVRYAMGWYRQAPGKERELVAAISSGGRTYYADSVKGRFTISRDNAKNTVYLQMNSLKPEDTAVYYCAAEKVGTRPSRDYDYWGQGTQVTVSS | high polyreactivity |
| QVQLVESGGGLVQAGGSLRLSCAASGSTFRSNAMGWYRQAPGKERELVASITSRGGSTYYADSVKGRFTISRDNAKNTVYLQMNSLKPEDTAVYYCATARSYLTYSYHYDYWGQGTQVTVSS | low polyreactivity |
| QVQLVESGGGLVQAGGSLRLSCAASGSTFAPNAMGWYRQAPGKERELVAVITRSVGSTYYADSVKGRFTISRDNSKNTVYLKMNSLKPEDTAVYFCAADYLRQDDYVALDYWGQGTQVTVSS | low polyreactivity |
| QVQLVESGGALVQAGGSLRLSCASSGFIFGVYDMGWYRQAPGKERELVAAIDSVGSTYYADSVKGRFTISRDNAKNTVYLQMNSLKPEDTAVYYCAKDGSYQAYGYWGQGTQVTVSS | low polyreactivity |
| QVQLVESGGGLVQAGGSLRLSCAASGFTFYYYAMGWYRQAPGKERELVAAISISGASTYYADSVKGRFTISRDNAKNTVYLQMNSLKPEETAVDYCAKRTKGYTYHHEYGYWGQGTQVTVSS | low polyreactivity |
| QVELVESGGGLVQAGGSLRLSCAASGRISYLYTMGWYRQAPGKERELFAASRWRDGSTYYADSVKGRFTISRDNAKTTVYLQMNSLKPEDTAVYFCGATPVGFYWYDYWGQGTQVTVSS | low polyreactivity |
| QVQLVESGGGLVQAGGILRLSCAASGIIFGYYAMGWYRQAPGKERELVAAISSIGGSTYYADSVKGRFTISRDNAKNTVYLQMNSLKPEDTAVYYCAAKYYGRYYRYLGSSFDYWGQGTQVTVSS | high polyreactivity |
| QVQLVESGGGLVQAGGSLRLSCAASGSTFYLYAMGWYRQAPGKERELVADISWDGDSTYYADSVKGRFTISRDNAKNTVYLQMNSLKPEDTAVYYCAADYFYYYEQYLWYTYDYWGQGTQVTVSS | high polyreactivity |
| QVQLVESGGGLVQAGRSLRLICAASGRTFSPNTMGWYRQAPGKEREFVAAINRSGGTTYYADSVKGRFTISRDIAKNTVYLQMNSRKPEDTAVYYCAADSIVPIYRGNDDNYWGQGTQVTVSS | low polyreactivity |
| QVQLVESGGGLVQAGGSLRLSCAASGITFVNNSRGCYRQAPVKEREFVAAISQGGGSTYYADSVKGRFTISRDNAKYTVYLQMNSLKPEDTAVYYCAAEIPRWWRFGYWGQGTQVTVSS | low polyreactivity |
| QVQLVESGGGLVQAGGSLRLSCAASGFIFSWYAMGWYRQAPGKERELVAAISHDGGSTYYADSVKGRFTISRDNAKNTVYLQMNSLKAEDTAVYYCAAPLRALSQRMGYWGQGTQVTVSS | high polyreactivity |
| QVQLVESGGGLVQAGGSLRLSSAASGRIFKIYPMVWYRQAPGKERELVAAISGRGGSTYYADSVKGRFTISRDNAKNTVYLQMISLKPEDTAVYYCAAVGYGFSAYSTYDYWGQGTQVTVSS | high polyreactivity |
| QVQLVESGGGLVQAGGSLRLSCAASGRIIDRNAMGWYRQAPGKERELFAAISSSGSTNYADSVKGRFTISRDNAKNTVYLQMNSLKPEDTAVYYCAARWRYVLAAGTRPVSFDYWGQGTQVTVSS | low polyreactivity |
| QVQLVESGGGLVQAGGSLRLSCAASGSTFDSYAMGWYRQAPGKERELVAAISSGGSTNYADSVKGRFTISRDNAKNTVYLQMNSLKPEDTAVYYCAAYGGHIWWLYRHYGYDYWGQGTQVTVSS | low polyreactivity |
| QVQLVESGGGLVQAGGSLRLSCAASGSTFKRNAMGWYRQAPGIERELVAAISYSGGSTYYADSMKGRFTISRDNAKNTVYLQMNSLKPEDTAVYYCWGPGTQVTVSS | low polyreactivity |
| QVQLVESGGGLVQAGGSLRLSCAASGSTFNRYAMGWYRQAPGKERELVAAISLSGGSTYYADSVKGRFTISRDNAKNTVYLQMNSLKPEDTAVYYCAADIFYYSSSYGYWGQGTQVTVSS | low polyreactivity |

| Sequence | polyreactivity (PSR sort gate) |
| --- | --- |
| QVQLVESGGGLVQAGGSLRLICAASGRTFYYYGMGWYRQAPGKERELVASITNGGNTNYADSVKGRFTISRDNAKNPVYLQKHSLYPEDTAVYYCAKDVPYWRPVVRYDYWGQGTQVTVSS | low polyreactivity |
| QVLLVESGGGLVQAGGSLRLSCAATGSIFVGYVMGWYRQAPGKERELVAAISRSGGRTYYADSVKGRFTISRDNAKNTVYLQMNSLKPEDTAVYYCAVRHRFYTAGYDYWGQGTQVTVSS | low polyreactivity |
| QVQLVESGGGLVQAGGSLRLSCAASGYIFDVNAMGWSRPAPGKESELVASISRSGASTYYADSVKGRFTISRDNAKNTVYLQMNSLQPEDTAVYYCNAVSRYCEYDSWGQGTQVTVSS | high polyreactivity |
| QVQLVESGGGLVQAGGSLRLSCAASGSIFWYYAMGWYRQAPGKERELVATITSGGTNYADSVKGRFTISRDNAKNTVYLQMNSLKPEDTAVYYCNADVSWSRIFYLGYDSNDYWGQGTQVTVSS | low polyreactivity |
| QVQLVESGGGLVQAGGSLRLSCAASGFTIHYNAMGWYRQAPGKERELVATISKSAGITSYADSVKGRFTISRDNAKNTVYLLMNSLKPEDTAVYYCAADKSYRRVYYWGQGTQVTVSS | low polyreactivity |
| QVQLVESGGGLVQAGGSLRLSCAASGSTFSSYAMGRYRQAPGKERELVAVITRGTSTNYADSVKGRFTISRDNAKNTVYLQMNSLKPEDTAVYYCNARRGSRRFGYWGQGTQVNVSS | high polyreactivity |
| QVQLVESCGGLVQAGGSLRLSCAASGITFGRNTMGWYRQAPGKERELVAAIDSGGNTYADSVKGRFTISRDNAKNTVYLQMNSLKPEDTAVYYCAVDGGEFSSYGYWGQGTQVTVSS | low polyreactivity |
| QVQLVESGGGLVQAGGSLRLSCAASGFTSGYNAMGWYRQAPGKERELVATITRGTRTYYADSVKGRFTISRDNAKNTVYLQMNSLKPEDTAVYYCNARVYYKTYGGYYSWGQGTQVTVSS | high polyreactivity |
| QVQLVESGGGLVQAGGSLRLSCAASGRIFGPYAMGWYRQAPGKERELVAAISWSGGSTYYADSVKGRFTISRDNAKNTVYLQMNSLKPEDTAVYYCAARERRVYGDRFYKLDYWGQGTQVTVSS | high polyreactivity |
| QVQLVESGGGLVQAGGSLRLSSAGSGRTFLANAMGWYRQAPGKEREFVAAIDWRTGSTYYADSVKGRFTISRDNAKNTVYLLMNSLKPEDTAVYYCAKDSSSYYYAHFYDWGQGTQVTVSS | high polyreactivity |
| QVQLVESGGGLVQAGGSLRLSCAASGSIHSLYTMGWYRQAPGKERELVARISRSGGSTYYADSVKGRFTISRDYAKNTVYLQMNSLKPEDTAVYYCADERKNKYDYWGQGTQVTVSS | high polyreactivity |
| QFQLVESGGGLDQAGGSLRISCAPSGITFEYYTMGLYRQAPGKEIEFVAAITQGGGTTYYADSVKGRFTISRDNEKNTVYLQMNSLKPEDTAVYYCAAYVGYLLLYYPTYYYWGQGTQVTVSS | low polyreactivity |
| QVQLVESGGGLVQAGGSLRLSCAASGVTFDAYVMGWYRQAPRKERELVAGIYSGGSTYYADSVKGRFTISRDNAKNTVYLQMNSLKPEDTAVYYCARENYRFAHEPPVSRQIPYDYWGQGTQVTVSS | low polyreactivity |
| QVQLVESGGGLVQAGGSLRLSCAASGRTFVYNAMGWYRQAPGKERELVAAIDGGGDRTYYADSVKGRFTISRDNAKNTVYLQMNSLKQEDTAVYFCARDPGDTYYYSYPEGDYWGQGTQVTVSS | low polyreactivity |
| QVQLVESGGGLVQAGGSLRLSCAASGSIFPRYAMGWYRQAPGKERELVAAITSGGSTNYADSVKGRFTISRDNAKNTVYLQMNSLKPDDTAVYYCATVRSLKEGASYFYWGQGTQVTVSS | high polyreactivity |
| QVQLVESGGRLVQAGGSLRLSCAASGRIIAYNAKGWYRQAPGKERELVDAISRSGGSTYYADSVKGRFTISRDNAKNTVYLQMNSLKPEDTAVYYCAASLKVPYATMNYWGQGTQVTVSS | high polyreactivity |
| QVQLVESGGGLVQAGGSLRLSCAASGITFNTYTMVWYTQAPGKERELVAAISGSSGRTYYADSVKGRFTISRDNAKNTVYLQMNSLNPEDTAVYYCAAYAVESYKYDYWGHGTQVTVSS | high polyreactivity |
| QVQLVESGGGLVQAGGSLRLSCAASGSIFGDYAMGWYRQAPGKERELVAAIRYIGVSTYYADSVKGRFTISRDNAKNTVYLQMNSLKPEDTAVYYCAAEVYYEYYYWRYYWGQGTQVTVSS | high polyreactivity |
| QVQLVESGGGLVQAGGSLRLSCAASGSTFLINAMGWYRQAPGKERELVAAISRDGSTNYADSVKGRFTISRDNAKNTVYLQMNSLKPEDTAVYYCAAVQGISVGRQPGYDYDYWGQGTQVTVSS | low polyreactivity |
| QGQLVESGGGLVQAGGSLRLSCAASGSIFEGYVMGWYRQAPGKERELFATISFSGGSTYYADSVKGRFTISRDNAKNTGYLQMNSLKPVDTAVYFCADSVPYKFYSVVSVRYEYWGQGTQVTVSS | low polyreactivity |
| QVQLVESGGGLVQAGGSLRFSCSASGSIFGYNTMGWYRPAPGKERQLVAAISKSGGSTYYADSVKGRFTISRDNAKNTVYLQMNSLKPEDSAVYYCATYAKQLSPYYYWGQGIQVTVSS | high polyreactivity |
